Consider five molecules from patent publication US20160194391A1.

Test [1] concerns the target human dimeric IL-23 (eBiosciences 34-8239) (human) (UniProt P29460).
The target of test [2] is human IL-6 (human) (UniProt P05231).
Test [3] has the same target. Briefly: cell-based or functional assay.
Test [4] deals with 3×FLAG-IL-6 (human). Put plainly: SPR, 3×FLAG-IL-6 captured by anti-FLAG M2 on protein G, scFv-PEG as analyte; material refolded by rapid dilution from SDS; refolded by rapid dilution from SDS. (SPR reads the build-up and loss of mass on a sensor chip optically.)
Sequence of 3×FLAG-IL-6 (human) (chain, as listed by the source limits assumed): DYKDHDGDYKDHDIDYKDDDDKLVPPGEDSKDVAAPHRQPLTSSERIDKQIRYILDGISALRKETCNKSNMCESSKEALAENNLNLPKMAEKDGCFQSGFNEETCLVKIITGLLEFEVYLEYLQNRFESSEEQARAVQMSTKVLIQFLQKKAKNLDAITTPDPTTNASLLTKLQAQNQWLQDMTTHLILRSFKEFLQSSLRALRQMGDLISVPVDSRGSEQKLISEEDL
Test [5] has as its target 3×FLAG-IL-6 (human). Put plainly: SPR, 3×FLAG-IL-6 captured by anti-FLAG M2 on protein G, scFv-PEG as analyte; material refolded by dialysis from urea.
Test [6] has as its target 3×FLAG-IL-6 (human). Put plainly: SPR, 3×FLAG-IL-6 captured by anti-FLAG M2 on protein G, scFv-PEG as analyte; material refolded by dialysis from urea; refolded by dialysis from urea.

Sequence of human IL-6 (human) (P05231 30-212 limits assumed): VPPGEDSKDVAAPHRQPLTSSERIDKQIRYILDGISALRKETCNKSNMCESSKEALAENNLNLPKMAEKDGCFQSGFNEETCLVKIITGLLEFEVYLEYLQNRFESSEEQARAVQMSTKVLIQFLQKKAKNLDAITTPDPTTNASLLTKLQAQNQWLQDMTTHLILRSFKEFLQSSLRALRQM
Sequence of human dimeric IL-23 (eBiosciences 34-8239) (human) (P29460 23-328 limits assumed, chain 1 of 2): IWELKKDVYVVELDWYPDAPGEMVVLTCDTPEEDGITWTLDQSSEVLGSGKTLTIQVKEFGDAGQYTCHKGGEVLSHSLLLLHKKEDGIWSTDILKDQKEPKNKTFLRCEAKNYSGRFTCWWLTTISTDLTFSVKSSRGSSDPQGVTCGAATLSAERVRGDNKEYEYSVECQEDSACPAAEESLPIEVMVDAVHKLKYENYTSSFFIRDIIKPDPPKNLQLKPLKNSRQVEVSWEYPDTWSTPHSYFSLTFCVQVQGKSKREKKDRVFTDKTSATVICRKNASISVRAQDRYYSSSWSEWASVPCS
Sequence of human dimeric IL-23 (eBiosciences 34-8239) (human) (Q9NPF7 20-189 limits assumed, chain 2 of 2, further chain): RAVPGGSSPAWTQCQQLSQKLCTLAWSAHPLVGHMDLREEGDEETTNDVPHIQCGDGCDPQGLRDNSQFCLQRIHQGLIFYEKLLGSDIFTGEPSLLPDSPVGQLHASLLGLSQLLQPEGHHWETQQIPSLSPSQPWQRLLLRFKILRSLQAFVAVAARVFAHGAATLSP

B1: 45G5 humanized scFv (mammalian expressed) (scFv)
scFv: DIQLTQSPSFLSASVGDRVTITCQSSQSIYNNNLLSWYQQKPGKAPKLLIYFASTLASGVPSRFSGSGSGTEFTLTISSLQPEDFATYYCLGGYDDDADTAFGGGTKVEIKGGGGSGGGGSGGGGSGGGGSEVQLVESGGGLVQPGGSLRLSCTVSGFSLSVYPINWVRQAPGKGLEWVGIINDVDDTAYSAWAKGRFTISRDNSKNTLYLQMNSLRAEDTAVYYCARGYLSYAYAGDAFDPWGQGTLVTVSSGPPPPHHHHHH
Regarding B1, the IC50 (read off the curve) (IL-17 from mouse splenocytes, OD450) in test [1] worked out at 0.4 ng/mL.

B2: 28D2 N-Aha (scFv)
scFv: MEDIQLTQSPSFLSASVGDRVTITCQASEDLFSSLAWYQQKPGKAPKLLIYSASTLASGVPSRFSGSGSGTDFTLTISSLQPEDFATYYCLGLYYYLTPDPIYGFGGGTKVEIKGGGGSGGGGSGGGGSGGGGSEVQLVESGGGLVQPGGSLRLSCTVSGLSLSKNAIAWVRQAPGKGLEWVGIIYAGGATTYASWAKGRFTISRDNSKNTLYLQLNSLRAEDTAVYYCAREYAGDSYYTGYTQLDLWGQGTLVTVSSGPPPPPHHHHHH
modifications: azidohomoalanine (Aha) in place of the single Met, at the N terminus
Consider B2, for which the IC50 (read off the curve) (B9 proliferation, OD570-600) in the test with human IL-6 (human) [2] is 0.03 ng/mL.

B3: 28D2-L Aha (scFv)
scFv: MADIQLTQSPSFLSASVGDRVTITCQASEDLFSSLAWYQQKPGKAPKLLIYSASTLASGVPSRFSGSGSGTDFTLTISSLQPEDFATYYCLGLYYYLTPDPIYGFGGGTKVEIKGGGGSGMGGSGGGGSGGGGSEVQLVESGGGLVQPGGSLRLSCTVSGLSLSKNAIAWVRQAPGKGLEWVGIIYAGGATTYASWAKGRFTISRDNSKNTLYLQLNSLRAEDTAVYYCAREYAGDSYYTGYTQLDLWGQGTLVTVSSGPPPPPHHHHHH
modifications: azidohomoalanine (Aha) in place of a single Met in the Gly/Ser linker between VL and VH
On to B3, for which the IC50 (read off the curve) (B9 proliferation, OD570-600) with human IL-6 (human) [2] is 0.03 ng/mL.

B4: 28D2c-PEG (scFv)
scFv: MAHHHHHHPPPPAAADIQLTQSPSFLSASVGDRVTITCQASEDLFSSLAWYQQKPGKAPKLLIYSASTLASGVPSRFSGSGSGTDFTLTISSLQPEDFATYYCLGLYYYLTPDPIYGFGGGTKVEIKGGGGSGGGGSGGGGSGGGGSEVQLVESGGGLVQPGGSLRLSCTVSGLSLSKNAIAWVRQAPGKGLEWVGIIYAGGATTYASWAKGRFTISRDNSKNTLYLQLNSLRAEDTAVYYCAREYAGDSYYTGYTQLDLWGQGTLVTVSSGM
modifications: C-terminal azidohomoalanine (Aha) conjugated to 30 kDa linear PEG alkyne
With B4, in the test with human IL-6 (human) [3], the EC50, IL-6 neutralization; folded by dialysis from urea turned out to be 0.116 ng/mL; the EC50 of the product; folded by rapid dilution from SDS is 0.256 ng/mL; the EC50 of the product; folded by rapid dilution from urea came to 0.138 ng/mL; the EC50 of the product; folded from guanidine amounted to 0.15 ng/mL. Besides, in the test with 3×FLAG-IL-6 (human) [4], the Kd was found to be 0.319 nM, the koff turned out to be 0.000104 s⁻¹ and the kon was found to be 326000 M⁻¹ s⁻¹. For the same molecule, in the test with 3×FLAG-IL-6 (human) [5], the Kd was 0.193 nM and the koff is 9.78e-05 s⁻¹. The kon with 3×FLAG-IL-6 (human) [6] came out at 507000 M⁻¹ s⁻¹.

B5: 28D2-C Aha (scFv)
scFv: MAHHHHHHPPPPAAADIQLTQSPSFLSASVGDRVTITCQASEDLFSSLAWYQQKPGKAPKLLIYSASTLASGVPSRFSGSGSGTDFTLTISSLQPEDFATYYCLGLYYYLTPDPIYGFGGGTKVEIKGGGGSGGGGSGGGGSGGGGSEVQLVESGGGLVQPGGSLRLSCTVSGLSLSKNAIAWVRQAPGKGLEWVGIIYAGGATTYASWAKGRFTISRDNSKNTLYLQLNSLRAEDTAVYYCAREYAGDSYYTGYTQLDLWGQGTLVTVSSGM
modifications: azidohomoalanine (Aha) in place of the single Met, at the C terminus
For B5, the IC50 (read off the curve) (B9 proliferation, OD570-600) with human IL-6 (human) [2] was determined as 0.03 ng/mL.

A word on the Kd: it is the constant that tells how readily two partners part at equilibrium. Read a low Kd as tighter binding. A word on the koff: it is a measure of how fast the partners let go of each other. By kon is commonly meant the second-order rate constant of association.
